Substitutions are numbered along the chain they refer to. Numbers in names are those of the source. Like-named read-outs stand apart in the source and are kept apart here. One block for each binder: values may come before it.
Legend:
[1] = target: T1, GDF11 (human, UniProt O95390); test: SPR, very low signal
T1 chain: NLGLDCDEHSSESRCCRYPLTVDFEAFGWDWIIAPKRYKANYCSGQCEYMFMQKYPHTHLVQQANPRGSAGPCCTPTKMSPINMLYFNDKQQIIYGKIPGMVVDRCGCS

[2] = target: T2, Activin B (human, UniProt P09529); test: SPR
T2 chain: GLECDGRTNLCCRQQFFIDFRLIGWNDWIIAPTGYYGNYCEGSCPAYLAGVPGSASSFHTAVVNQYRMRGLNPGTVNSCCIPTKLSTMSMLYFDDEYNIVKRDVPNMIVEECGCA

[3] = target: T1, GDF11; test: SPR
[4] = target: T3, Activin A (human, UniProt P08476); test: SPR
T3 chain: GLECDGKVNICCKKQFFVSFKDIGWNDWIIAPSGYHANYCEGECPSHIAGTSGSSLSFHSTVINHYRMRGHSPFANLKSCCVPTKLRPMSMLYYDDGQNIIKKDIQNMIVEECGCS

[5] = target: T4, BMP9 (human, UniProt Q9UK05); test: SPR, transient
T4 chain: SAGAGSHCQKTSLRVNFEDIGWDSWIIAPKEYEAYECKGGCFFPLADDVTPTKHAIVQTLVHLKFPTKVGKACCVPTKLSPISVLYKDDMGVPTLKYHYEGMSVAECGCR

[6] = target: T5, BMP10 (human, UniProt O95393); test: SPR
T5 chain: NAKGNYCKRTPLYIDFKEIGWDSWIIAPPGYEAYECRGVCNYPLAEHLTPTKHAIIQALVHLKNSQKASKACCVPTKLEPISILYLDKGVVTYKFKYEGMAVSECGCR

[7] = target: T3, Activin A; test: SPR
[8] = target: T6, GDF8 (human, UniProt O14793); test: SPR
[9] = target: T2, Activin B; test: SPR
[10] = target: T1, GDF11; test: SPR
[11] = target: T7, GDF3 (human, UniProt Q9NR23); test: SPR
T7 chain: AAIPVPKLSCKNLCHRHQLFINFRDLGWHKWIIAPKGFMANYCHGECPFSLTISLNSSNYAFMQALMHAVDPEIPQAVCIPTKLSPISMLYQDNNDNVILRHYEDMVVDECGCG

[12] = target: T8, BMP6 (human, UniProt P22004); test: SPR
T8 chain: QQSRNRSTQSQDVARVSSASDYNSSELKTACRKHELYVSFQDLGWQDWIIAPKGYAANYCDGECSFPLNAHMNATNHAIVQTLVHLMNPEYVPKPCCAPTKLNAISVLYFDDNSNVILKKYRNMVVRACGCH

[13] = target: T3, Activin A; test: SPR
[14] = target: T1, GDF11; test: SPR
[15] = target: T3, Activin A; test: SPR
[16] = target: T6, GDF8; test: SPR; remark: listed apart in the source

T6 sequence (O14793 267-375): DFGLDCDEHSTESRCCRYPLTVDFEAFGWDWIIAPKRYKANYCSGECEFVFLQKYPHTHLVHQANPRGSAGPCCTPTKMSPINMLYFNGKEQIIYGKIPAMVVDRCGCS

Kd [1]: 0.27 nM
B1: ALK4-Fc homodimer (protein)
chain: SGPRGVQALLCACTSCLQANYTCETDGACMVSIFNLDGMEHHVRTCIPKVELVPAGKPFYCLSSEDLRNTHCCYTDYCNRIDLRVPSGHLKEPEHPSMWGPVE

Kd [2]: 0.788 nM | Kd [3]: 0.123 nM | Kd [4]: 13.5 nM
B2: ActRIIB(L79D 20-134)-hFc (protein)
chain: GRGEAETRECIYYNANWELERTNQSGLERCEGEQDKRLHCYASWRNSSGTIELVKKGCWDDDFNCYDRQECVATEENPQVYFCCCEGNFCNERFTHLPEAGGPEVTYEPPPTAPTGGGTHTCPPCPAPELLGGPSVFLFPPKPKDTLMISRTPEVTCVVVDVSHEDPEVKFNWYVDGVEVHNAKTKPREEQYNSTYRVVSVLTVLHQDWLNGKEYKCKVSNKALPVPIEKTISKAKGQPREPQVYTLPPSREEMTKNQVSLTCLVKGFYPSDIAVEWESNGQPENNYKTTPPVLDSDGSFFLYSKLTVDKSRWQQGNVFSCSVMHEALHNHYTQKSLSLSPGK

Kd [2]: 0.012 nM | Kd [3]: 0.036 nM | Kd [4]: 0.016 nM
B3: ActRIIB(20-134)-hFc (protein)
chain: B2 chain with D60L

Kd [5]: 3.4 nM | Kd [6]: 0.074 nM | Kd [7]: 0.012 nM | Kd [8]: 0.55 nM | Kd [9]: 0.006 nM | Kd [10]: 0.003 nM | Kd [11]: 4.9 nM | Kd [12]: 2.7 nM
B4: ALK4-Fc:ActRIIB-Fc heterodimer (protein)
chain 1: SGPRGVQALLCACTSCLQANYTCETDGACMVSIFNLDGMEHHVRTCIPKVELVPAGKPFYCLSSEDLRNTHCCYTDYCNRIDLRVPSGHLKEPEHPSMWGPVETGGGTHTCPPCPAPELLGGPSVFLFPPKPKDTLMISRTPEVTCVVVDVSHEDPEVKFNWYVDGVEVHNAKTKPREEQYNSTYRVVSVLTVLHQDWLNGKEYKCKVSNKALPAPIEKTISKAKGQPREPQVYTLPPSREEMTKNQVSLTCLVKGFYPSDIAVEWESNGQPENNYDTTPPVLDSDGSFFLYSDLTVDKSRWQQGNVFSCSVMHEALHNHYTQKSLSLSPG
chain 2: B2 chain with D60L, V226A, E252K, D295K

Kd [13]: ~26 nM
B5: ActRIIB-Fc +15tail (protein)
chain: B2 chain with D60L

binding result [14]: no binding
B6: ActRIIB-Fc K55A (protein)
chain: B2 chain with K55A, D60L

Kd [15]: 0.0841 nM | Kd [16]: 2.15 nM
B7: ActRIIB(R64K 20-129)-hFc (protein)
chain: GRGEAETRECIYYNANWELERTNQSGLERCEGEQDKRLHCYASWKNSSGTIELVKKGCWLDDFNCYDRQECVATEENPQVYFCCCEGNFCNERFTHLPEAGGPEVTYEPP
